{"source": "patent US20160311918A1", "about": "“Anti-Ron Monoclonal Antibodies as a Cytotoxic Drug Delivery System for Targeted Cancer Therapy” (TEXAS TECH UNIVERSITY SYSTEM, priority 2013, published 2016)", "key": {"[1]": {"assay": "Stability of Zt/g4-DM1 at 37° C. by HIC (DAR)", "type": "physicochemical", "excerpt": "FIGS. 1A to 1C show the generation and characterization of anti-RON ADC Zt/g4-DM1. FIG. 1A: Schematic representation of Zt/g4-DM1 structure: Zt/g4 is a mouse mAb specific to the RON sema domain (18). DM1 was conjugated to Zt/g4 by non-reducible thioether linkage (SMCC) through lysine residues in the antibody molecule. FIG. 1B: HIC analysis of the number of DM1 conjugated to Zt/g4: Individual Zt/g4-DM1s with different numbers of DM1 (0 to 8) are marked as P0 to P8. FIG. 1C: Stability of Zt/g4-DM1. Zt/g4-DM1 was kept at 37° C. for 30 days. Samples analyzed at different time-points with the average DARs were shown;\nAnalysis of Zt/g4-DM1 conjugation and its stability: The conjugation of DM1 to Zt/g4 was verified by hydrophobic interaction chromatography (HIC) using a Varian Prostar 210 Quaternary HPLC system coupled with a TSK butyl-NPR 4.6×3.5 column (Tosoh Biosciences (Prussia, Pa.) (31). The average DARs were calculated from the integrated areas of the DAR species. This method also was used to determine the stability of Zt/g4-DM1 at 37° C.\nThe stability of Zt/g4-DM1 was determined by incubating the conjugates in vitro at 37° C. for 30 days. DAR changes were measured by HIC from different time-points."}, "[2]": {"tested_on": "RON-negative LoVo cells", "assay": "Cell viability assay, LoVo", "type": "cell-based, human", "method": "Cell viability and death assays: Cell viability 72 h after Zt/g4-DM1 treatment was determined by the MTT assay (22). Viable or dead cells were determined by the trypan blue exclusion assay. A total of 900 cells were counted from three individual wells to reach the percentages of dead cells.\nThe effect of Zt/g4-DM1 on cell viability was determined. […] The cells were treated with Zt/g4-DM1."}, "[3]": {"target": "cell surface RON (Homo sapiens, UniProt Q04912)", "sequence (Q04912 310-1400 limits assumed)": "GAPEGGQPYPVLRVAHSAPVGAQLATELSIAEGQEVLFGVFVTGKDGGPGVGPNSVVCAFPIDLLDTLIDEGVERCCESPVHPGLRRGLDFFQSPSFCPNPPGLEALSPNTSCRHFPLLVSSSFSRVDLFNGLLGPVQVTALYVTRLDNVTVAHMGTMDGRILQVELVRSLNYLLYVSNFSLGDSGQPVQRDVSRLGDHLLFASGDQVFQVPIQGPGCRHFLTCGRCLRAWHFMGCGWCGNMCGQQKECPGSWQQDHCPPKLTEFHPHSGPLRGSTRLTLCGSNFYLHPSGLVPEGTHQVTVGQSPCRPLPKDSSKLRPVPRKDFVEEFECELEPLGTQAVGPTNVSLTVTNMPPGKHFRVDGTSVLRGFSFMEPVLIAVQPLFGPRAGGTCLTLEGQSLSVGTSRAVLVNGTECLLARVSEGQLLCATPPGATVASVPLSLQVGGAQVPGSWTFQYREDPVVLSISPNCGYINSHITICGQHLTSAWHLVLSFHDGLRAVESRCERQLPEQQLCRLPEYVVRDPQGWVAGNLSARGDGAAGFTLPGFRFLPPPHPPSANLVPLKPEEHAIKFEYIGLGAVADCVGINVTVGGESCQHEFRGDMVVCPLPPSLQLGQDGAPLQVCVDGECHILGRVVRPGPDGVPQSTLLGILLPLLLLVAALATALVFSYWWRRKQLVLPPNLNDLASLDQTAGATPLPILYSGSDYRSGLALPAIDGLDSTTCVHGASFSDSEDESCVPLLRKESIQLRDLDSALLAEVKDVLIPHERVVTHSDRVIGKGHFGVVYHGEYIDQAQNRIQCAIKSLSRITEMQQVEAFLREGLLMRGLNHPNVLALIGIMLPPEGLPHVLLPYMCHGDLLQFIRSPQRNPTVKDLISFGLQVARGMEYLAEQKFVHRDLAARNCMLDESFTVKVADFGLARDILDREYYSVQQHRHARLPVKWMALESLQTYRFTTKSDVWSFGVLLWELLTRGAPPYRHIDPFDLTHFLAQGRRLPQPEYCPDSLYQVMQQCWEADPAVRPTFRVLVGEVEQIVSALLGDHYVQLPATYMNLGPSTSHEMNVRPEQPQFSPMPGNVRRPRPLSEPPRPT", "sequence (Q04912 25-304 limits assumed)": "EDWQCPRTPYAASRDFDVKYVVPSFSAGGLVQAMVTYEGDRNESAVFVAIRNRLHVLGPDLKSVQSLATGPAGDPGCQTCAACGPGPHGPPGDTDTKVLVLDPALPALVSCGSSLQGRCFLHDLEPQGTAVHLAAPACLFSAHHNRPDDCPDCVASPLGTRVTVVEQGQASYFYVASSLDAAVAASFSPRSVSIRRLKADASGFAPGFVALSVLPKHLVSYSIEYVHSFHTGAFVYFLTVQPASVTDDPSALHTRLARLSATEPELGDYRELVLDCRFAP", "assay": "Kinetic reduction of cell surface RON (endocytosis) in CRC cells", "type": "cell-based", "set-up": "We selected CRC cell lines HT29, HCT116, and SW620 expressing variable levels of RON as the cellular model; host or cells: HCT116, HT29, SW620", "settings": "for time required to induce 50% RON reduction (internalization efficacy): 37° C.", "method": "FIGS. 2A to 2F show the binding and induction of RON endocytosis by Zt/g4-DM1 in CRC cells. FIG. 2A: Levels of RON expression by different CRC cell lines: Five CRC cells lines (1×10^6 cells/ml) in PBS were incubated at 4° C. with 5 μg/ml Zt/g4 for 60 min. […] matched mouse IgG was used as the control. Cell surface RON was quantitatively determined by the immunofluorescence assay using QIFKIT® reagents from DAKO (Carpentaria, Calif.) as detailed in Materials and Methods. FIG. 2B: Binding of Zt/g4-DM1 to human CRC cell lines: HCT116, HT29, and SW620 cells (1×10^5 cells) were incubated with 5 μg Zt/g4-DM1 or Zt/c1-DM1. Free Zt/g4 and Zt/c1 was used as the control. Fluorescence intensity from individual samples was determined by flow cytometric analysis. FIG. 2C: Kinetic reduction of cell surface RON: HCT116, HT29, and SW620 cells (1×10^6 cells per dish) were treated at 37° C. with 5 μg/ml of Zt/g4-DM1, collected at different time points, washed with acidic buffer to eliminate cell surface bound IgG, and then incubated with 1 μg/mL of anti-RON mAb 2F2 Immunofluorescence was analyzed by flow cytometer using FITC-coupled anti-mouse IgG Immunofluorescence from cells treated with Zt/g4-DM1 or Zt/c1-DM1 at 4° C. was set as 100%. Internalization efficiency was calculated as the time required to achieve 50% cell surface RON reduction. FIG. 2D: RON reduction analysis by Western blotting: Cellular proteins (50 μg per lane) from cells treated with 5 μg/ml of Zt/g4 or Zt/g4-DM1 for various times were separated in an 8% SDS-PAGE under reduced conditions and transferred to the membrane. RON was detected by rabbit anti-RON antibody followed enhanced chemiluminescent reagents. The same membrane was reprobed for actin as the loading control. FIG. 2E: Quantitative measurement of RON expression: The intensity of individual RON-β chains was determined by densitometric analysis. Internalization efficiency was calculated as the time required to achieve a 50% RON reduction. FIG. 2F: Immunofluorescent localization of cytoplasmic RON: HT29 cells (1×10^5 cells per chamber) were treated at 4° C. or 37° C. with 5 μg/ml of Zt/g4-DM1 or Zt/c1-DM1 for 6 h followed by FITC-coupled anti-mouse IgG. After cell fixation, immunofluorescence was detected using the BK70 Olympus microscope equipped with a fluorescence apparatus. LAMP1 was used as a marker for protein cytoplasmic localization. DAPI was used to stain nuclear DNA;\nZt/g4-DM1-induced RON endocytosis was studied, which is a process essential for delivering DM1 into CRC cells. Zt/g4-DM1 causes a progressive reduction of cell surface RON in a time-dependent manner in all three CRC cell lines tested (FIG. 2C). Less than 20% of RON remained on the cell surface after a 48 hour treatment. […] Thus, Zt/g4-DM1 is more efficient and potent in induction of RON endocytosis."}}, "note": "Where “and” joins values, the source holds several entries; their conditions need not be identical. Identical values can stand only once."}
{"molecule": "Zt/g4-DM1: anti-RON mouse mAb Zt/g4 conjugated to maytansinoid DM1 via non-reducible thioether linkage (SMCC), DAR about 4:1 (conjugate) VH: EVQLQQSGAELVKPGASVKLSCTTSGFNIIDTYIHWVNQKPDQGLEWIGRIDPADGNRKSDPKFQVKATITVDTSSNTAYLQLSSLTSGDTAVYYCARGYGNLNAMDSWGQGTSVTVSS VL: DIQMNQSPSSLSASLGDTITITCHASQNINVWLNWYQQKPGNIPKLLIYKASNLHTGVPSRFSGSGSGTGFTLTISSLQPEDIATYYCQQGQSYPLTFGGGTKLEIK", "values": [{"measurement": "time stable at 37° C.", "setting": "[1]", "value": "up to 30 days"}, {"measurement": "peak 5 share of conjugates at day 30", "setting": "[1]; 25.39% at day 0", "value": 20.06, "unit": "%"}, {"measurement": "peak 4 share of conjugates at day 30", "setting": "[1]; 39.05% at day 0", "value": 32.72, "unit": "%"}, {"measurement": "reduction in DAR after 30 days", "setting": "[1]; day 30 vs day 0", "value": "6.4% and 6.5%"}, {"measurement": "average DAR at day 30", "setting": "[1]; in vitro, HIC", "value": 3.484}, {"measurement": "effect on cell viability", "setting": "[2]", "value": "no effect"}, {"measurement": "time required to induce 50% RON reduction (internalization efficacy)", "setting": "[3]; HCT116, 5 μg/ml", "value": 12.26, "unit": "h"}, {"measurement": "time required to induce 50% RON reduction (internalization efficacy)", "setting": "[3]; HT29, 5 μg/ml", "value": 11.02, "unit": "h"}, {"measurement": "time required to induce 50% RON reduction (internalization efficacy)", "setting": "[3]; SW620, 5 μg/ml", "value": 12.30, "unit": "h"}, {"measurement": "RON remaining on the cell surface", "setting": "[3]; after 48 hour treatment, 5 μg/ml, three CRC cell lines", "value": "Less than 20%"}, {"measurement": "cell surface RON internalized", "setting": "[3]; within 48 h", "value": "> 80", "unit": "%"}]}
